Experimental findings from PMC6136799, “The Npa1p complex chaperones the assembly of the earliest eukaryotic large ribosomal subunit precursor” (PLoS Genetics, 2018) are described below.

The target of one test is T1, GST-Npa1p (S. cerevisiae, UniProt P34241 1-1764).
T1 construct: Npa1p, S. cerevisiae; NPA1 ORF inserted into XhoI-digested pGEX-6P1 (plasmid pRC59); source: E. coli Rosetta λDE3, purified (Glutathione Sepharose 4 FF)
The test can be described thus: pull-down; 2 μg GST-tagged protein on glutathione magnetic beads, 2 μg His-Dbp6p in 200 μl IP buffer (50 mM Tris-HCl pH 8, 150 mM potassium chloride, 5 mM magnesium chloride, 0.2% Nonidet P-40), 1 h at 16°C; Western with anti-His; also after RNase A treatment. Conditions: both partners purified.

For a further test, the target named is T2, GST-Npa2p (S. cerevisiae, UniProt P47108 1-1174).
T2 construct: Npa2p, S. cerevisiae; NPA2 ORF inserted into XhoI-digested pGEX-6P1 (plasmid pRC58); source: E. coli Rosetta λDE3, purified (Glutathione Sepharose 4 FF)
T2 sequence (looked up): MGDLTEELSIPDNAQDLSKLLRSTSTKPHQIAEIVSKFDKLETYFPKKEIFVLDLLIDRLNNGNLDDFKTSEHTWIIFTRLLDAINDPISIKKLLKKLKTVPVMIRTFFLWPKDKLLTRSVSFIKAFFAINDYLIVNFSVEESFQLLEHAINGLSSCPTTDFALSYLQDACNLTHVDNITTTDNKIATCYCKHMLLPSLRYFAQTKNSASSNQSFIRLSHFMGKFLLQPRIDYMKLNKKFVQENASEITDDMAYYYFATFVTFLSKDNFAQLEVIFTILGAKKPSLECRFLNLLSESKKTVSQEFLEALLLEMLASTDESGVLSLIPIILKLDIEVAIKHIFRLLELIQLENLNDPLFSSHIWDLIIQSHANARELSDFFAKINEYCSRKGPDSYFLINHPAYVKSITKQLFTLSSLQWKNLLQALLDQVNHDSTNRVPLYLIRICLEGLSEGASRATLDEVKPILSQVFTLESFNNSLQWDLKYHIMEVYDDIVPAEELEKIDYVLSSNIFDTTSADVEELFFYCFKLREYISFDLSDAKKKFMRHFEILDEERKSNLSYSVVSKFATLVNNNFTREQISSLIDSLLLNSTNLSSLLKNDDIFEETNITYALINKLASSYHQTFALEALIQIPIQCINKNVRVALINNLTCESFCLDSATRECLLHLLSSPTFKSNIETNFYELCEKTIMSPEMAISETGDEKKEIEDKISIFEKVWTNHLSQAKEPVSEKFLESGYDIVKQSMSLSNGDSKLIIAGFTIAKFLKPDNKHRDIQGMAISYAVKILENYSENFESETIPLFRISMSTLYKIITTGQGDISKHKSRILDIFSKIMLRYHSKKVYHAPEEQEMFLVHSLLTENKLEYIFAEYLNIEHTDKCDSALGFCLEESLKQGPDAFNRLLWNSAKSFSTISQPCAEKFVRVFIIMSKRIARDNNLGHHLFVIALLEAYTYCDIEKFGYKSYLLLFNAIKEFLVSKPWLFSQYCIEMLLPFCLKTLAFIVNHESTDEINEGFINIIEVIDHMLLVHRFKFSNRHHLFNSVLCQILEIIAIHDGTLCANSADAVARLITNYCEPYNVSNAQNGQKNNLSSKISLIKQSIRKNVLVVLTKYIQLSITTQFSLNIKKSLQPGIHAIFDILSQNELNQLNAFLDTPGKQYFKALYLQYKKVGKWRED
The description is as above. Conditions: both partners purified.

T1 sequence (P34241 whole entry): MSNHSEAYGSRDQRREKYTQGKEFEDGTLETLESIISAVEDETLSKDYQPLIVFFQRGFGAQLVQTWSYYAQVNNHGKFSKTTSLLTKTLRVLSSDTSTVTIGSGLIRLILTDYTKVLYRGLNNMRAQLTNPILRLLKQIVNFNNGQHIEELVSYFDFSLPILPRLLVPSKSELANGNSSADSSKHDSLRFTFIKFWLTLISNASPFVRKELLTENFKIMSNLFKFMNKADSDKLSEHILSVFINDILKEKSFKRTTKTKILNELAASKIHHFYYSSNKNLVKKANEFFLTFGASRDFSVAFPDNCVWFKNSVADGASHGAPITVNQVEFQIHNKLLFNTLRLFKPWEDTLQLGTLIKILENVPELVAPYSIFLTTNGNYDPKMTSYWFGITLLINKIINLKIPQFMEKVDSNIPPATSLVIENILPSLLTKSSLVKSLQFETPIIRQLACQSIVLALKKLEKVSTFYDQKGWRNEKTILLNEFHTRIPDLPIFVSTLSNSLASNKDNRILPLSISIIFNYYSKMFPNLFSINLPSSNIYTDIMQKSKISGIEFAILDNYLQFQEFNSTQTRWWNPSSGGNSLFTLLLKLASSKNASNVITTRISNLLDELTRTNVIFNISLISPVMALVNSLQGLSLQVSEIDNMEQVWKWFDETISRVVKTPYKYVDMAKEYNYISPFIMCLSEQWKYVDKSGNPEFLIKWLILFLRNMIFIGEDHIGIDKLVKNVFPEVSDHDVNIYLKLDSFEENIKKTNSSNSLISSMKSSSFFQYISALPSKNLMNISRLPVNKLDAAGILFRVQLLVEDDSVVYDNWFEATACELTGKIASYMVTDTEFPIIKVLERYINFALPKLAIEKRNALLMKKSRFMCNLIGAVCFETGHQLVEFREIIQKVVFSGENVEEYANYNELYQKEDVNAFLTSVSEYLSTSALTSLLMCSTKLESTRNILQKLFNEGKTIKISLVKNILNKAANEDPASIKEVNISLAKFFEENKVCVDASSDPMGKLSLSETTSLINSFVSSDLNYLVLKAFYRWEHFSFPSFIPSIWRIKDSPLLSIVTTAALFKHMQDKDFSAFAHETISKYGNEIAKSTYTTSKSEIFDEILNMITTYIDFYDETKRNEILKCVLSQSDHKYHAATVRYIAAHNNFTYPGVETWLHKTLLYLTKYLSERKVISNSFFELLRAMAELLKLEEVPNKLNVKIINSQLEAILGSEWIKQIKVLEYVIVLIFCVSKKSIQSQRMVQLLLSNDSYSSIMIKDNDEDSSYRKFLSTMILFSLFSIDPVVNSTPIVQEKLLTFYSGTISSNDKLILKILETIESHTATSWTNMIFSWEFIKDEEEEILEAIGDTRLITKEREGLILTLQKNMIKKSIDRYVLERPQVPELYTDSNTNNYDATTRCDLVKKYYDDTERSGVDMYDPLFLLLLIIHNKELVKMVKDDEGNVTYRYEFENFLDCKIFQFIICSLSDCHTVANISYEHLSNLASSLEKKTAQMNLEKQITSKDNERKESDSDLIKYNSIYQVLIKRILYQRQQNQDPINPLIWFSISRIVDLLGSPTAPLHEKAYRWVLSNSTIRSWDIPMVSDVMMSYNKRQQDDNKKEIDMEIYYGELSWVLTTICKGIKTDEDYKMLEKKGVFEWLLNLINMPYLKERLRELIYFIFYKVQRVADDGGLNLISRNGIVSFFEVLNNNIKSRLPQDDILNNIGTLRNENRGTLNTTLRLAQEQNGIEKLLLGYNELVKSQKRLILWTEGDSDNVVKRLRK

B1: His-Dbp6p (natural protein, S. cerevisiae, UniProt P53734 1-629, looked up)
chain: MFASRFDPSQLTAPAASAPEGIVGTTPPAIVPLKRQATESDNEEYGSHQDSDESSNSSSEEDEDRMQVDYGASEEDSSEVEEEESKPSTHSTVLSRFKQTVSLQERLGASDIAESKEDEGIEDEAASTHQLKQIPQPEFVKNPMNLNTNSLQFKSTGWLNTEKIYYDNSLIKPFSDYANELEAKLLQNICKNFSTNTFPIQSIILDSILPVLNFTLNVSKRNFTRRIGDILVNAATGSGKTLAYSIPIVQTLFKRQINRLRCIIIVPTKLLINQVYTTLTKLTQGTSLIVSIAKLENSLKDEHKKLSNLEPDILITTPGRLVDHLNMKSINLKNLKFLIIDEADRLLNQSFQGWCPKLMSHLKTDKLDTLPGNVIKMIFSATLTTNTEKLNGLNLYKPKLFLKQTDKLYQLPNKLNEFNINIPTAKSVYKPLILLYSICQFMAHSPIAAKILIFVKSNESSIRLSKLLQLICESRSQSSVLKNLQNLAVSINSVNSNNSKAENKKIVANFSHHSESAGITILITTDIMSRGIDINDITQVINYDPPMSSQQYVHRVGRTARANELGSAYNLLVGRGERTFFDDLNKDLDRDGKSVQPLELDFTLLESDSELYTSSLESLKNYHNNTAQA
notes: Dbp6p, S. cerevisiae; DBP6 ORF cloned into a modified pET-15b (plasmid pET-DBP6); also called His-tagged Dbp6p; source: E. coli Rosetta λDE3, purified (HisTrap FF, Superdex 200)
As for B1, the binding result with GST-Npa1p and in the test with GST-Npa2p was “binds” throughout.
